Assay [1] concerns the target T1, human melanocortin 1 receptor (human, UniProt Q01726 1-317).
T1 construct: whole, on cells; also called hMC1R; hMC1 receptor
The assay is described as follows: competition with [125I]-NDP-alpha-MSH on whole HEK293 cells expressing the receptor.

Assay [2] has as its target T2, human melanocortin 5 receptor (human, UniProt P33032 1-325).
T2 construct: whole, on cells; also called hMC5R; hMC5 receptor
The assay is described as above.

The target in assay [3] is T3, human melanocortin 3 receptor (human, UniProt P41968 1-323).
T3 construct: whole, on cells; also called hMC3R; hMC3 receptor
Description: assay not given; taken as the competition binding assay on HEK293 cells.

In assay [4] the target is T1, human melanocortin 1 receptor. Description: competition with [125I]-NDP-alpha-MSH on A375 human melanoma cells.

The values that follow come from patent EP3177737B1 (Arizona Board of Regents on behalf of the University of …, dated 2020).

In general, IC50 refers to the point on the concentration scale where inhibition reaches its midpoint.

T2 sequence (P33032 whole entry): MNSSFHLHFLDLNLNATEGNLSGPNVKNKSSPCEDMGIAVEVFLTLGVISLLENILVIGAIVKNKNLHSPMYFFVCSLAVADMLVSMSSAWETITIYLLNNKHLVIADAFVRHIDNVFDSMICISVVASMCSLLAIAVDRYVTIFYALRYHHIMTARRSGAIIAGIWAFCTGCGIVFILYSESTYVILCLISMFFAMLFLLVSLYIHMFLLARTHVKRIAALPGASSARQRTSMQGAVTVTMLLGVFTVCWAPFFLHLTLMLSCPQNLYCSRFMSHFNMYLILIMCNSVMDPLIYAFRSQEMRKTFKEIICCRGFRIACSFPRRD
T1 sequence (Q01726 whole entry): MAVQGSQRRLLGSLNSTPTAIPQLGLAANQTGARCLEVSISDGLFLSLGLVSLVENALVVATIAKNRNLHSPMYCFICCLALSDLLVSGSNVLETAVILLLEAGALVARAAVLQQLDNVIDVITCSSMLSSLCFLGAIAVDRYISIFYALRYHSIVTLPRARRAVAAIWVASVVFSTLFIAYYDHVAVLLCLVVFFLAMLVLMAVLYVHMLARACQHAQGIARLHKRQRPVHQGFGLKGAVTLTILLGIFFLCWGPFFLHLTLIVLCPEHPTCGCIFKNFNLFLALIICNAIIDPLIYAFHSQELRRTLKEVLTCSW
T3 sequence (P41968 whole entry): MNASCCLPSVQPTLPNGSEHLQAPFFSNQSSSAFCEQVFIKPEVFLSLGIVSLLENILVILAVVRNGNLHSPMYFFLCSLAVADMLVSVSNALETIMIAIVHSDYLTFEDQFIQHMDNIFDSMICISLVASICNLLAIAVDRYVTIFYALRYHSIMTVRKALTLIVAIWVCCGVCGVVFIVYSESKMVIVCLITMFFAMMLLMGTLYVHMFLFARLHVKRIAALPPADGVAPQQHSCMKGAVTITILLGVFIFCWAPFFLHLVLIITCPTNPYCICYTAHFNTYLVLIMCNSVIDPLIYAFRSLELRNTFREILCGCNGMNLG

B1: Peptide 32 (penta-N-methylated compound 32): Ac-Nle-c[Asp-(NMe)His-(NMe)nal-(NMe)Arg-(NMe)Trp-(NMe)Lys]-NH2 (peptide)
peptide: LDHXRWK
modifications: N-terminal acetyl; Nle at 4; D-Nal(2') (nal) at 7; Asp5-Lys10 side-chain lactam ring; C-terminal amide; backbone N-methyl on His6, nal7, Arg8, Trp9 and Lys10 (alpha-MSH numbering 4-10)
notes: NO; 32; No. 32 to the hMC1R antagonist
On to B1, for which the IC50 in assay [1] was determined as 68 nM.

B2: Peptide 28: Ac-Nle-c[Asp-(NMe)His-nal-(NMe)Arg-(NMe)Trp-(NMe)Lys]-NH2 (peptide)
peptide: LDHXRWK
modifications: N-terminal acetyl; Nle at 4; D-Nal(2') (nal) at 7; Asp5-Lys10 side-chain lactam ring; C-terminal amide; backbone N-methyl on His6, Arg8, Trp9 and Lys10 (alpha-MSH numbering 4-10)
With B2, in assay [2], the binding result is recorded as “binds”.

B3: Peptide 16: Ac-Nle-c[Asp-(NMe)His-(NMe)nal-Arg-Trp-Lys]-NH2 (peptide)
peptide: LDHXRWK
modifications: N-terminal acetyl; Nle at 4; D-Nal(2') (nal) at 7; Asp5-Lys10 side-chain lactam ring; C-terminal amide; backbone N-methyl on His6 and nal7 (alpha-MSH numbering 4-10)
As to B3, in assay [2], the binding result is on record as “binds”.

B4: Peptide 15: Ac-Nle-c[Asp-(NMe)His-nal-(NMe)Arg-Trp-Lys]-NH2 (peptide)
peptide: LDHXRWK
modifications: N-terminal acetyl; Nle at 4; D-Nal(2') (nal) at 7; Asp5-Lys10 side-chain lactam ring; C-terminal amide; backbone N-methyl on His6 and Arg8 (alpha-MSH numbering 4-10)
Molecule B4 returned a binding affinity in assay [3] of 15 nM. Moreover, the binding result in assay [2] is “binds”. In assay [4], this molecule returned an IC50 of 14.8 nM.

B5: Peptide 7: Ac-Nle-c[Asp-His-nal-Arg-(NMe)Trp-(NMe)Lys]-NH2 (peptide)
peptide: LDHXRWK
modifications: N-terminal acetyl; Nle at 4; D-Nal(2') (nal) at 7; Asp5-Lys10 side-chain lactam ring; C-terminal amide; backbone N-methyl on Trp9 and Lys10 (alpha-MSH numbering 4-10)
On to B5, for which the binding result in assay [2] is “binds”.

B6: Peptide 8: Ac-Nle-c[Asp-His-nal-(NMe)Arg-Trp-(NMe)Lys]-NH2 (peptide)
peptide: LDHXRWK
modifications: N-terminal acetyl; Nle at 4; D-Nal(2') (nal) at 7; Asp5-Lys10 side-chain lactam ring; C-terminal amide; backbone N-methyl on Arg8 and Lys10 (alpha-MSH numbering 4-10)
Take B6: the binding result in assay [2] was “binds”.

B7: Peptide 6: Ac-Nle-c[Asp-(NMe)His-nal-Arg-Trp-Lys]-NH2 (peptide)
peptide: LDHXRWK
modifications: N-terminal acetyl; Nle at 4; D-Nal(2') (nal) at 7; Asp5-Lys10 side-chain lactam ring; C-terminal amide; backbone N-methyl on His6 (alpha-MSH numbering 4-10)
As for B7, in assay [2], the binding result is given as “binds”.

B8: Peptide 3: Ac-Nle-c[Asp-His-nal-Arg-(NMe)Trp-Lys]-NH2 (peptide)
peptide: LDHXRWK
modifications: N-terminal acetyl; Nle at 4; D-Nal(2') (nal) at 7; Asp5-Lys10 side-chain lactam ring; C-terminal amide; backbone N-methyl on Trp9 (alpha-MSH numbering 4-10)
For the molecule B8, in assay [2], the binding result is recorded as “binds”.

B9: Peptide 19: Ac-Nle-c[Asp-(NMe)His-nal-Arg-(NMe)Trp-(NMe)Lys]-NH2 (peptide)
peptide: LDHXRWK
modifications: N-terminal acetyl; Nle at 4; D-Nal(2') (nal) at 7; Asp5-Lys10 side-chain lactam ring; C-terminal amide; backbone N-methyl on His6, Trp9 and Lys10 (alpha-MSH numbering 4-10)
For B9, the binding result in assay [2] is reported as “binds”.

B10: Peptide 4: Ac-Nle-c[Asp-His-nal-(NMe)Arg-Trp-Lys]-NH2 (peptide)
peptide: LDHXRWK
modifications: N-terminal acetyl; Nle at 4; D-Nal(2') (nal) at 7; Asp5-Lys10 side-chain lactam ring; C-terminal amide; backbone N-methyl on Arg8 (alpha-MSH numbering 4-10)
Consider B10, for which the binding result in assay [2] was “binds”.

B11: Peptide 14: Ac-Nle-c[Asp-His-(NMe)nal-(NMe)Arg-Trp-Lys]-NH2 (peptide)
peptide: LDHXRWK
modifications: N-terminal acetyl; Nle at 4; D-Nal(2') (nal) at 7; Asp5-Lys10 side-chain lactam ring; C-terminal amide; backbone N-methyl on nal7 and Arg8 (alpha-MSH numbering 4-10)
In the case of B11, in assay [2], the binding result is reported as “binds”.

B12: Peptide 11: Ac-Nle-c[Asp-His-nal-(NMe)Arg-(NMe)Trp-Lys]-NH2 (peptide)
peptide: LDHXRWK
modifications: N-terminal acetyl; Nle at 4; D-Nal(2') (nal) at 7; Asp5-Lys10 side-chain lactam ring; C-terminal amide; backbone N-methyl on Arg8 and Trp9 (alpha-MSH numbering 4-10)
Consider B12, for which the binding result in assay [2] is recorded as “binds”.

B13: Peptide 10: Ac-Nle-c[Asp-(NMe)His-nal-Arg-Trp-(NMe)Lys]-NH2 (peptide)
peptide: LDHXRWK
modifications: N-terminal acetyl; Nle at 4; D-Nal(2') (nal) at 7; Asp5-Lys10 side-chain lactam ring; C-terminal amide; backbone N-methyl on His6 and Lys10 (alpha-MSH numbering 4-10)
On to B13, for which, in assay [2], the binding result is “binds”.

B14: Peptide 2: Ac-Nle-c[Asp-His-nal-Arg-Trp-(NMe)Lys]-NH2 (peptide)
peptide: LDHXRWK
modifications: N-terminal acetyl; Nle at 4; D-Nal(2') (nal) at 7; Asp5-Lys10 side-chain lactam ring; C-terminal amide; backbone N-methyl on Lys10 (alpha-MSH numbering 4-10)
Turning to B14, in assay [2], the binding result was “binds”.
